Measured values taken from patent US20170298146A1 (MODIQUEST B V, published 2017).
Non-standard residues stand in square brackets, D forms with d. No end group written: not given here. Cit = NC(=O)NCCC[C@H](N)C(=O)O

How the values were obtained:
[1] = target: T1, CFC-1; assay: peptide ELISA, 10 ug/well
T1 construct: Positive control for anti-citrulline reactivity; also called cfc1 XG
Experimental: (§1) Biotin and citrulline-containing peptides derived from histone 2A were immobilized on NEUTRAVIDIN®-coated 96-well ELISA plates (0.3 μg/well). CFC-1 and CFC-0 were coated at the same concentration and served as positive and negative controls respectively for specific anti-citrulline reactivity and as coating controls. Non-coated wells were used to test for aspecific binding of the antibodies. […] Detection of bound anti-citrulline antibodies was performed by incubating the wells with rabbit-anti-human-HRP (1:2000) for one hour at RT followed by incubation with TMB substrate. The resulting OD (y-axis) is a measure for antibody binding.
(§2) Ninety-six-well ELISA plates were coated with NEUTRAVIDIN® (0.1 μg/well) by overnight incubation at 4° C. Wells were washed five times with PBS-TWEEN®-20 (PBS-T) and blocked by a one-hour incubation with PBS-T+1% Bovine serum albumin (BSA) at room temperature (RT). After five more washes with PBS-T, wells were incubated for one hour at RT with histone-derived citrulline and biotin-containing peptides (0.3 μg/well). […] Wells were washed five times with PBS-T and incubated with rabbit-anti-human-HRP (1:2000) for one hour at RT followed by five washes with PBS-T and three wash steps with PBS. Wells were incubated for five minutes with TMB substrate before stopping the reaction with 2 M H₂SO₄. Optical density was measured by 450 nm and is a measure for the affinity of the antibodies used.

[2] = target: T2, Histone 2A citrulline-containing peptide 1 (human, also: biotin label); assay: peptide ELISA, 10 ug/well
T2 construct: also called AAASGXGKQGGK
T2 peptide: AAASG[Cit]GKQGGK
Experimental: as §1, §2

[3] = target: T3, Histone 2A citrulline-containing peptide 2 (human, also: biotin label); assay: peptide ELISA, 10 ug/well
T3 peptide: AKAKS[Cit]SSRAGL
Experimental: as §1, §2

[4] = target: T4, Histone 2A citrulline-containing peptide 3 (human, also: biotin label); assay: peptide ELISA, 10 ug/well
T4 peptide: KSRSS[Cit]AGLQFP
Experimental: as §1, §2

[5] = target: T5, Histone 2A citrulline-containing peptide 4 (human, also: biotin label); assay: peptide ELISA, 10 ug/well
T5 peptide: QFPVG[Cit]VHRLLR
Experimental: as §1, §2

[6] = target: T6, Histone 2A citrulline-containing peptide 5 (human, also: biotin label); assay: peptide ELISA, 10 ug/well
T6 peptide: VGRVH[Cit]LLRKGN
Experimental: as §1, §2

[7] = target: T7, Histone 2A citrulline-containing peptide 6 (human, also: biotin label); assay: peptide ELISA, 10 ug/well
T7 peptide: VHRLL[Cit]KGNYSE
Experimental: as §1, §2

[8] = target: T8, Histone 2A citrulline-containing peptide 7 (human, also: biotin label); assay: peptide ELISA, 10 ug/well
T8 peptide: GNYSE[Cit]VGAGAP
Experimental: as §1, §2

[9] = target: T9, Histone 2A citrulline-containing peptide 9 (human, also: biotin label); assay: peptide ELISA, 10 ug/well
T9 peptide: DNKKT[Cit]IIPRHL
Experimental: as §1, §2

[10] = target: T10, Histone 2A citrulline-containing peptide 11 (human, also: biotin label); assay: peptide ELISA, 10 ug/well
T10 peptide: LQLAI[Cit]NDEELN
Experimental: as §1, §2

[11] = target: T11, Histone 2A citrulline-containing peptide 12 (human, also: biotin label); assay: peptide ELISA, 10 ug/well
T11 peptide: NKLLG[Cit]VTIAQG
Experimental: as §1, §2

[12] = target: T1, CFC-1; assay: peptide ELISA, 0.0023 ug/well
Experimental: as §1, with “fibrinogen and vimentin” for “histone 2A”
(§3) Biotin-labeled and citrulline-containing fibrinogen and vimentin peptides (Table 5) were also tested for reactivity with the therapeutic antibodies. Peptides were coated on 96-well NEUTRAVIDIN®-ELISA plates.

[13] = target: T12, msFibα XH (mouse, X at position 15 is citrulline; biotin label); assay: peptide ELISA, 0.0023 ug/well
T12 peptide: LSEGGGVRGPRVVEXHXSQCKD
Experimental: as §1, with “fibrinogen and vimentin” for “histone 2A”
as §3

[14] = target: T13, msFibα XG (mouse, X at position 8 is citrulline; biotin label); assay: peptide ELISA, 0.0023 ug/well
T13 peptide: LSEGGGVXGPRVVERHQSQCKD
Experimental: as §1, with “fibrinogen and vimentin” for “histone 2A”
as §3

[15] = target: T14, huFibα XH (human, X at position 15 is citrulline; biotin label); assay: peptide ELISA, 0.0023 ug/well
T14 peptide: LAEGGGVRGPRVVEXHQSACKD
Experimental: as §1, with “fibrinogen and vimentin” for “histone 2A”
as §3

[16] = target: T15, huFibα XG (human, X at position 8 is citrulline; biotin label); assay: peptide ELISA, 0.0023 ug/well
T15 peptide: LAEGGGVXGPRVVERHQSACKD
Experimental: as §1, with “fibrinogen and vimentin” for “histone 2A”
as §3

[17] = target: T16, msFibβ XG (mouse, also: biotin label); assay: peptide ELISA, 0.0023 ug/well
T16 peptide: EPTDSLDA[Cit]GHRPVDRR
Experimental: as §1, with “fibrinogen and vimentin” for “histone 2A”
as §3

[18] = target: T17, msVim XS/XL (mouse, also: biotin label); assay: peptide ELISA, 0.0023 ug/well
T17 construct: also called mouse vimentin peptide
T17 peptide: YVT[Cit]SSAV[Cit]L[Cit]SSVP
Experimental: as §1, with “fibrinogen and vimentin” for “histone 2A”
as §3

[19] = target: T2, Histone 2A citrulline-containing …; assay: peptide ELISA, 0.000128 ug/well
Experimental: as §1, §2

[20] = target: T3, Histone 2A citrulline-containing …; assay: peptide ELISA, 0.000128 ug/well
Experimental: as §1, §2

[21] = target: T7, Histone 2A citrulline-containing …; assay: peptide ELISA, 0.000128 ug/well
Experimental: as §1, §2

[22] = target: T18, Histone 2A citrulline-containing peptide 8 (human, also: biotin label); assay: peptide ELISA, 0.000128 ug/well
T18 peptide: AGNAA[Cit]DNKKTR
Experimental: as §1, §2

[23] = target: T9, Histone 2A citrulline-containing …; assay: peptide ELISA, 0.000128 ug/well
Experimental: as §1, §2

[24] = target: T19, Histone 2A citrulline-containing peptide 10 (human, also: biotin label); assay: peptide ELISA, 0.000128 ug/well
T19 peptide: TRIIP[Cit]HLQLAI
Experimental: as §1, §2

[25] = target: T10, Histone 2A citrulline-containing …; assay: peptide ELISA, 0.000128 ug/well
Experimental: as §1, §2

B1: RhmAb2.102 (antibody, human IgG1, lambda)
heavy: not shown
light: QSVLTQPPSMSAAPGQKVTISCSGSSSNIGNNYVSWYQQVPGTAPKLLIYDDNKRPSGIPGRFSGSKSATSATLGITGLQAGDEADYYCGSWDDNLSVVLFGGGTKLTVLGQPKAAPSVTLFPPSSEELQANKATLVCLISDFYPGAVTVAWKADSSPVKAGVETTTPSKQSNNKYAASSYLSLTPEQWKSHRSYSCQVTHEGSTVEKTVAPTECS
notes: Human IgG1 lambda; also called Rhm2.102
- OD [1]: 3.27 OD
- OD [2]: 3.11 OD
- OD [3]: 0.552 OD
- OD [4]: 0.619 OD
- OD [5]: 2.06 OD
- OD [6]: 0.239 OD
- OD [7]: 1.41 OD
- OD [8]: 0.08 OD
- OD [9]: 0.09 OD
- OD [10]: 0.088 OD
- OD [11]: 0.083 OD
- OD [12]: 0.506 OD
- OD [13]: 0.085 OD
- OD [14]: 0.125 OD
- OD [15]: 0.123 OD
- OD [16]: 0.125 OD
- OD [17]: 0.12 OD
- OD [18]: 0.142 OD
- OD [19]: 0.128 OD
- OD [20]: 0.075 OD
- OD [21]: 0.054 OD
- OD [22]: 0.055 OD
- OD [23]: 0.055 OD
- OD [24]: 0.057 OD
- OD [25]: 0.059 OD
